The labels stand for the following.
B1: Telomere repeats-binding bouquet formation protein 1 (Mus musculus), Q8C0V1-1 (parent)
chain: MESEKPKKTQEMKTDLKLLLECLKYHMGNPLSQKEVLITIHSVCKQNSDAGIYFREIGGLMFIINLAKSSEQSLVKEAALYTLGSIAEENVYCQQSLCTSELFQDLTGLLTNDDSNTNLKRMSVYVLLVLVSNNRNGQTLVREVGCIEVLSQMFRTVLSNYELNLSDNSVFQSYLLWSSVCSTLCVCVNNPQNDENQMLCCSLFPCVNEWLMNCMRPEVIRPICSFIGLTLANNTHAQNCFVSSGGLDVLCQVLVQLESDSHNTLSSAKLAVIVTKTMDACITDNSAAFTVVLSKYHIVSTLLALLLHESLDSREKFSIILAIGHCTEDCEKNQYELLKNNGLPLMIQALTEFKNEDLSKAATYVLHNCKKITGKLSLSLGQNSFGENEIELKDISEKETLREHWKAAKEILCRIKQFEKGGKEEKQQNRSGHYKDNTPSMKVNIQTNLKRLCADSTGGTRAEDKDINQSRELRSYKPSEIMSKACANENQLTTRKKNTNPVHPFCKEKGQSKIVHETTPSCAQNLDKEKTFDQKDSVSQSSDQVLKHLPHTVKNRKQVPETDPFTLCLDIIDREVGIQATDSCSRMLKYTCSGCIVARKLLNSRNFSKFLHSCAYQCVHHKVIMEAEDKYKNELRKTFICAKKILLTPCRRRQLCKESTASEELKIVHQKPDSKKLPGLEAQALNTSIPEAMERRSPVPGQSGLHKKRRIRKDFTKEEVNYLFHGVKTMGNHWNSILWSFPFQKGRRAVDLAHKYHRLIKGPSCAAL
partner: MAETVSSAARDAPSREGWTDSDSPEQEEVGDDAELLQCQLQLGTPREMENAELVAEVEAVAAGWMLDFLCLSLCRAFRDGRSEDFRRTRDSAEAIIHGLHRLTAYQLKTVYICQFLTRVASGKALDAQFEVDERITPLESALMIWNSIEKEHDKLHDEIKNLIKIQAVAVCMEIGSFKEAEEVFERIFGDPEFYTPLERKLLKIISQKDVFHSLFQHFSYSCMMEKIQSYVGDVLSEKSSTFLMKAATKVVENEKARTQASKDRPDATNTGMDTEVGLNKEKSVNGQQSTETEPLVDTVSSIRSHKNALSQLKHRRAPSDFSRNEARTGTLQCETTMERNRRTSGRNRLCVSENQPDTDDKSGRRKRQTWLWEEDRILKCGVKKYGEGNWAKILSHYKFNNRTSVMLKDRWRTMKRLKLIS

The variants in this experiment derive from B1. The settings on record: with terf1_mouse Terf1, P70371.
Consider T648D, for which the “effect of a mutation on the interaction” value is on record as “disrupting interaction strength”.

(Values after IntAct's records for PubMed 24413433.)
